Source: publication doi:10.1101/2024.07.01.601608 (bioRxiv, 2024)

B1: MED14 (endogenous) (natural protein)
chain: not shown
B2: MED19 (endogenous) (natural protein)
chain: MENFTALFGAQADPPPPPTALGFGPGKPPPPPPPPAGGGPGTAPPPTAATAPPGADKSGAGCGPFYLMRELPGSTELTGSTNLITHYNLEQAYNKFCGKKVKEKLSNFLPDLPGMIDLPGSHDNSSLRSLIEKPPILSSSFNPITGTMLAGFRLHTGPLPEQCRLMHIQPPKKKNKHKHKQSRTQDPVPPETPSDSDHKKKKKKKEEDPDRKRKKKEKKKKKNRHSPDHPGMGSSQASSSSSLR
B3: MED10 (endogenous) (natural protein)
chain: MAEKFDHLEEHLEKFVENIRQLGIIVSDFQPSSQAGLNQKLNFIVTGLQDIDKCRQQLHDITVPLEVFEYIDQGRNPQLYTKECLERALAKNEQVKGKIDTMKKFKSLLIQELSKVFPEDMAKYRSIRGEDHPPS
B4: MED18 (endogenous) (natural protein)
chain: MEAPPVTMMPVTGGTINMMEYLLQGSVLDHSLESLIHRLRGLCDNMEPETFLDHEMVFLLKGQQASPFVLRARRSMDRAGAPWHLRYLGQPEMGDKNRHALVRNCVDIATSENLTDFLMEMGFRMDHEFVAKGHLFRKGIMKIMVYKIFRILVPGNTDSTEALSLSYLVELSVVAPAGQDMVSDDMKNFAEQLKPLVHLEKIDPKRLM
B5: MED31 (endogenous) (natural protein)
chain: MAAAVAMETDDAGNRLRFQLELEFVQCLANPNYLNFLAQRGYFKDKAFVNYLKYLLYWKDPEYAKYLKYPQCLHMLELLQYEHFRKELVNAQCAKFIDEQQILHWQHYSRKRMRLQQALAEQQQQNNTSGK
B6: MED22 (endogenous) (natural protein)
chain: MAQQRALPQSKETLLQSYNKRLKDDIKSIMDNFTEIIKTAKIEDETQVSRATQGEQDNYEMHVRAANIVRAGESLMKLVSDLKQFLILNDFPSVNEAIDQRNQQLRTLQEECDRKLITLRDEISIDLYELEEEYYSSSSSLCEANDLPLCEAYGRLDLDTDSADGLSAPLLASPEPSAGPLQVAAPAHSHAGGPGPTEHA
B7: recombinant human CCNC-6xHis (baculovirus) (natural protein)
chain: MAGNFWQSSHYLQWILDKQDLLKERQKDLKFLSEEEYWKLQIFFTNVIQALGEHLKLRQQVIATATVYFKRFYARYSLKSIDPVLMAPTCVFLASKVEEFGVVSNTRLIAAATSVLKTRFSYAFPKEFPYRMNHILECEFYLLELMDCCLIVYHPYRPLLQYVQDMGQEDMLLPLAWRIVNDTYRTDLCLLYPPFMIALACLHVACVVQQKDARQWFAELSVDMEKILEIIRVILKLYEQWKNFDERKEMATILSKMPKPKPPPNSEGEQGPNGSQNSSYSQS
B8: CCNC (endogenous) (natural protein)
chain: B7 chain
B9: MED6 (endogenous) (natural protein)
chain: MAAVDIRDNLLGISWVDSSWIPILNSGSVLDYFSERSNPFYDRTCNNEVVKMQRLTLEHLNQMVGIEYILLHAQEPILFIIRKQQRQSPAQVIPLADYYIIAGVIYQAPDLGSVINSRVLTAVHGIQSAFDEAMSYCRYHPSKGYWWHFKDHEEQDKVRPKAKRKEEPSSIFQRQRVDALLLDLRQKFPPKFVQLKPGEKPVPVDQTKKEAEPIPETVKPEEKETTKNVQQTVSAKGPPEKRMRLQ
B10: MED17 (endogenous) (natural protein)
chain: MSGVRAVRISIESACEKQVHEVGLDGTETYLPPLSMSQNLARLAQRIDFSQGSGSEEEEAAGTEGDAQEWPGAGSSADQDDEEGVVKFQPSLWPWDSVRNNLRSALTEMCVLYDVLSIVRDKKFMTLDPVSQDALPPKQNPQTLQLISKKKSLAGAAQILLKGAERLTKSVTENQENKLQRDFNSELLRLRQHWKLRKVGDKILGDLSYRSAGSLFPHHGTFEVIKNTDLDLDKKIPEDYCPLDVQIPSDLEGSAYIKVSIQKQAPDIGDLGTVNLFKRPLPKSKPGSPHWQTKLEAAQNVLLCKEIFAQLSREAVQIKSQVPHIVVKNQIISQPFPSLQLSISLCHSSNDKKSQKFATEKQCPEDHLYVLEHNLHLLIREFHKQTLSSIMMPHPASAPFGHKRMRLSGPQAFDKNEINSLQSSEGLLEKIIKQAKHIFLRSRAAATIDSLASRIEDPQIQAHWSNINDVYESSVKVLITSQGYEQICKSIQLQLNIGVEQIRVVHRDGRVITLSYQEQELQDFLLSQMSQHQVHAVQQLAKVMGWQVLSFSNHVGLGPIESIGNASAITVASPSGDYAISVRNGPESGSKIMVQFPRNQCKDLPKSDVLQDNKWSHLRGPFKEVQWNKMEGRNFVYKMELLMSALSPCLL

Experiments:
MED13L (endogenous) = MED13L (endogenous) (human (endogenous in 293-F), UniProt Q71F56 1-2210); assay: cross-linking
MED12 (endogenous) = MED12 (endogenous) (human (endogenous in 293-F), UniProt Q93074 1-2177); assay: cross-linking
Chain of MED12 (endogenous) (Q93074 whole entry): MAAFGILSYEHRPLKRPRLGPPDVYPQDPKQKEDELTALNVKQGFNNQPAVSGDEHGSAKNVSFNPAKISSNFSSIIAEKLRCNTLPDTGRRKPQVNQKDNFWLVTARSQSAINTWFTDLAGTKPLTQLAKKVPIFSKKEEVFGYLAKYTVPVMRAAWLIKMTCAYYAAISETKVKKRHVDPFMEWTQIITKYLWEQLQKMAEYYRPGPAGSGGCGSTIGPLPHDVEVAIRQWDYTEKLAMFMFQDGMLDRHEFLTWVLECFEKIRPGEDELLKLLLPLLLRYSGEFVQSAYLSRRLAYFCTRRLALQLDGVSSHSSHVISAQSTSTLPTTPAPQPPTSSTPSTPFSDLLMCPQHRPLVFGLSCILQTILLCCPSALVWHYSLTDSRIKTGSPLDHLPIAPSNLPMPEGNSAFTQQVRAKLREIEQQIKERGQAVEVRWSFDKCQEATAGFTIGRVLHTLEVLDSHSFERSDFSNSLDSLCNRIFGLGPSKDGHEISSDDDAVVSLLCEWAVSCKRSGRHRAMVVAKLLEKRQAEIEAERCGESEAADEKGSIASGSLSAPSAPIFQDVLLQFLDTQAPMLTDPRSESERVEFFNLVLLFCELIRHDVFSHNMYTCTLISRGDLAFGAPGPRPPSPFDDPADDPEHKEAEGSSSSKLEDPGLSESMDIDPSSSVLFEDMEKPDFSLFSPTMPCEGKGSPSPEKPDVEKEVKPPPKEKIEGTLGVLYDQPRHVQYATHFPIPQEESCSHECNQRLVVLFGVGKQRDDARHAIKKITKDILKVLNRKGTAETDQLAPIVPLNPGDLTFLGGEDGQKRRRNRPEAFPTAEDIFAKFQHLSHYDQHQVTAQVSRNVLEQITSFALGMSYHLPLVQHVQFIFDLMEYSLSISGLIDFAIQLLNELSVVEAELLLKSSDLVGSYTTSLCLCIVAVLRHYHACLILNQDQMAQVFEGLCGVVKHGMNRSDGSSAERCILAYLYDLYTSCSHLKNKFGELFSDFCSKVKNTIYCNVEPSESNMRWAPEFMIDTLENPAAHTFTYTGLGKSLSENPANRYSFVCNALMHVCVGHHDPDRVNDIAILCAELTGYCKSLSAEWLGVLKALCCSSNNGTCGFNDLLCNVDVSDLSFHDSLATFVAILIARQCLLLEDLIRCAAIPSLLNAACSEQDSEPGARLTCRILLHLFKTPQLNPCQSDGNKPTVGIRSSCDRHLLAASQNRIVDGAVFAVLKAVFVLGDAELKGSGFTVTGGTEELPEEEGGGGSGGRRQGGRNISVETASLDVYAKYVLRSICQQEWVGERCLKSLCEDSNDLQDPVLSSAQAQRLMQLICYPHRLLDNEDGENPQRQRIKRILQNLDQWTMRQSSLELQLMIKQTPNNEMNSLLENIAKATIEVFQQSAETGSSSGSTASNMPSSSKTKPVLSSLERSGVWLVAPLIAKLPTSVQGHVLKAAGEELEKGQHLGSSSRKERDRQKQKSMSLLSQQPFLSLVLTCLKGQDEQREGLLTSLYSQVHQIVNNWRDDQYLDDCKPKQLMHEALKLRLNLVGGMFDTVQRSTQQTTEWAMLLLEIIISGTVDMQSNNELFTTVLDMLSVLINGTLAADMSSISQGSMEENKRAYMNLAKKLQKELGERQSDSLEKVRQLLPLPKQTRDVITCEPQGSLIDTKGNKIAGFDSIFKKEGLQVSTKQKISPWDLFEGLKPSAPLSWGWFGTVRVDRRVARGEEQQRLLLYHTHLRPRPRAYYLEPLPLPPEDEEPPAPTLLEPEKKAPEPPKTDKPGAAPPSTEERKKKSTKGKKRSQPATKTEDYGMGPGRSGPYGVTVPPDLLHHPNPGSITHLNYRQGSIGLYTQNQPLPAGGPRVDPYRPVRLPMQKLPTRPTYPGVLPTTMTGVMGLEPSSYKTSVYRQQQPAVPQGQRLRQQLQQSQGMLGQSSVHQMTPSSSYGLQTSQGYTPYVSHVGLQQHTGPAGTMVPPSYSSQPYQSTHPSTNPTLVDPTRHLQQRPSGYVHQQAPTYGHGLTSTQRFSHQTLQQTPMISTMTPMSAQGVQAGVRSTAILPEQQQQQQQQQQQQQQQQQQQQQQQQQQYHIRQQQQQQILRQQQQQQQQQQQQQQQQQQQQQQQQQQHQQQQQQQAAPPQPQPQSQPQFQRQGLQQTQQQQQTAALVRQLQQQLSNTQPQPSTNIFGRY

MED14 (endogenous) = target: B1; assay: cryo-EM structure
MED13 (endogenous) [1] = target: T1, MED13 (endogenous) (human (endogenous in 293-F), UniProt Q9UHV7 1-2174); assay: cryo-EM structure
T1 sequence (Q9UHV7 whole entry): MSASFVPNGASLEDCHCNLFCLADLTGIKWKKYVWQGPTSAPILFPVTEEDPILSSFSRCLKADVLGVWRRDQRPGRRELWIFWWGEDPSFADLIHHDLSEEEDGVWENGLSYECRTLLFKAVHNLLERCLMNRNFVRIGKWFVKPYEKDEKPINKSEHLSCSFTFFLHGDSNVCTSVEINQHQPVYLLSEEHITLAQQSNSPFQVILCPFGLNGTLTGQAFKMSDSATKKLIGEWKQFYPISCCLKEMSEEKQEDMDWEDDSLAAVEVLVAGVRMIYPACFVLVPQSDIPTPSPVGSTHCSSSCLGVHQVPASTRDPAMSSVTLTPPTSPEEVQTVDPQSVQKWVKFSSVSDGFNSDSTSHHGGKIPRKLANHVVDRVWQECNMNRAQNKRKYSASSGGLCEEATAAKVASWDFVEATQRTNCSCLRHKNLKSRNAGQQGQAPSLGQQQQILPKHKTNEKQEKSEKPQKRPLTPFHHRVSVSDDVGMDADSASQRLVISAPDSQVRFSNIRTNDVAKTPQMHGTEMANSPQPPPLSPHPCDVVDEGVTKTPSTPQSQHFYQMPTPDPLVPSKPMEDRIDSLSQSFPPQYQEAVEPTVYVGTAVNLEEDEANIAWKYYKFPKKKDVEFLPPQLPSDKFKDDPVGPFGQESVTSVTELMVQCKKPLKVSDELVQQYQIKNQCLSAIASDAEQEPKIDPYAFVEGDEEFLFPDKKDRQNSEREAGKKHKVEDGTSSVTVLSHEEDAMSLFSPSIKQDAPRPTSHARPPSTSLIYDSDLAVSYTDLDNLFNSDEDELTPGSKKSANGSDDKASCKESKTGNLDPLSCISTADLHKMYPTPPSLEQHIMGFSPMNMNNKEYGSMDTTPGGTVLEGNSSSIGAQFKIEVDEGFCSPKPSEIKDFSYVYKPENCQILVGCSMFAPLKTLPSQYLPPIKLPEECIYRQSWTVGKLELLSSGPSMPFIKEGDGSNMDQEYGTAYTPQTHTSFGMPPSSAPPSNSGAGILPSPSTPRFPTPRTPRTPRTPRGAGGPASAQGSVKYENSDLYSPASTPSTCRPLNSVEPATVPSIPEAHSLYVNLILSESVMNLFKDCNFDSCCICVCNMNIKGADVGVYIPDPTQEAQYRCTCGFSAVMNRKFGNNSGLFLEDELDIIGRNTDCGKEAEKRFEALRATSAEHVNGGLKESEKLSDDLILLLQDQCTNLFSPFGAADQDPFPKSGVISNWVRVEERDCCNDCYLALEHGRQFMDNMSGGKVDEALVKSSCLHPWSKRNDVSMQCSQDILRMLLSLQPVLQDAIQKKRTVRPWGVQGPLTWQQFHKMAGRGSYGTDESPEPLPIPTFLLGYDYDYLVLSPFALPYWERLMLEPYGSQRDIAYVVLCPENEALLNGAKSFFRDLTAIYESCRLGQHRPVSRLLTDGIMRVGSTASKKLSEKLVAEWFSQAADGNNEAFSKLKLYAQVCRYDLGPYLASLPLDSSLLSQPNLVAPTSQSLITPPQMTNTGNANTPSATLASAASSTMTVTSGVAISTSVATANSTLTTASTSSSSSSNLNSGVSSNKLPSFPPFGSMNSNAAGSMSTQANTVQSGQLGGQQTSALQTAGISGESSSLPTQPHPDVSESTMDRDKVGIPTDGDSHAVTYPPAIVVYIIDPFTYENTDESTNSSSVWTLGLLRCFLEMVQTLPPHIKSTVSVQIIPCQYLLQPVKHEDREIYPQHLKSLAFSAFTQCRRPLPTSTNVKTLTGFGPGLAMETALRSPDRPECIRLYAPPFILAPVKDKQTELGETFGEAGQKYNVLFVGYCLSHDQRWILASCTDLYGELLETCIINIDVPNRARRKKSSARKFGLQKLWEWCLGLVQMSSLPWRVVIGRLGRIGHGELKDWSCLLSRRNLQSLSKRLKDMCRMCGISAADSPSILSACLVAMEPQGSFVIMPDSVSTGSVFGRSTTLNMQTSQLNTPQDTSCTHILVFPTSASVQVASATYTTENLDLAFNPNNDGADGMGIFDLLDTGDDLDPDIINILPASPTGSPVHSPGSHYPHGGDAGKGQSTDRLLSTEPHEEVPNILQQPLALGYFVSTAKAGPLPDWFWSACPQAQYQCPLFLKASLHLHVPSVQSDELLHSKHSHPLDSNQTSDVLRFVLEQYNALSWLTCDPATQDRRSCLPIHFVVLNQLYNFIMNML

MED13 (endogenous) [2] = target: T1, MED13 (endogenous); assay: cross-linking
MED12L (endogenous) = MED12L (endogenous) (human (endogenous in 293-F), UniProt Q86YW9 1-2145); assay: cross-linking
[3] = target: recombinant human CDK8-Flag (baculovirus) (human, UniProt P49336 1-464); assay: cryo-EM structure
Chain of recombinant human CDK8-Flag (baculovirus) (P49336 whole entry): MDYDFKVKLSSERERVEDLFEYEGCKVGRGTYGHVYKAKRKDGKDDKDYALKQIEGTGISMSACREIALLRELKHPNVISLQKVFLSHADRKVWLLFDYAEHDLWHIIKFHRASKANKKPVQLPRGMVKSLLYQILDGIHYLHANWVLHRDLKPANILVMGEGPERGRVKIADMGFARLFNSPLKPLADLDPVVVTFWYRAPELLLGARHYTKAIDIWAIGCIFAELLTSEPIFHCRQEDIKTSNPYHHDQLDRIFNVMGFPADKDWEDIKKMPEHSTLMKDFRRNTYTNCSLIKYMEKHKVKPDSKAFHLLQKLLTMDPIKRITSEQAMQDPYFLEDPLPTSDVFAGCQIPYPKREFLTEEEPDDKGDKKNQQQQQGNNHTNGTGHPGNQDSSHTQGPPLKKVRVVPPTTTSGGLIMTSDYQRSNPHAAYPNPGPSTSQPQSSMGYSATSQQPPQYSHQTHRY

[4] = target: recombinant human MED12-HA (baculovirus) (human, UniProt Q93074 1-2177); assay: cryo-EM structure
Chain of recombinant human MED12-HA (baculovirus) (Q93074 whole entry): as the sequence (Q93074 whole entry) above

Binder: B1
- binding result (MED13L (endogenous)): binds

Binder: B2
- binding result (MED12 (endogenous)): binds
- binding result (MED14 (endogenous)): binds
- binding result (MED13 (endogenous) [1]): binds

Binder: B3
- binding result (MED12 (endogenous)): binds
- binding result (MED13 (endogenous) [2]): binds
- binding result (MED12L (endogenous)): binds
- binding result (MED14 (endogenous)): binds

Binder: B4
- binding result (MED13L (endogenous)): binds

Binder: B5
- binding result (MED13 (endogenous) [2]): binds

Binder: B6
- binding result (MED13L (endogenous)): binds

Binder: B7
- binding result [3]: binds
- binding result [4]: binds

Binder: B8
- binding result (MED12 (endogenous)): binds

Binder: B9
- binding result (MED13 (endogenous) [2]): binds
- binding result (MED13L (endogenous)): binds

Binder: B10
- binding result (MED13L (endogenous)): binds
